According to patent US20240083991A1:
Values belong to the binder of their own block, whether it stands above or below them.

How the values were obtained:
[1] = target: human mature BMP9 (human) (UniProt Q9UK05); experiment: competition ELISA: antibody mixed with 5 nM BMP9-biotin, binding to coated ActRIIA (5 µg/ml) detected
[2] = target: human mature BMP9 (human) (UniProt Q9UK05); experiment: competition ELISA: antibody mixed with 1.5 nM BMP9-biotin, binding to coated BMPRII (2 µg/ml) detected
[3] = target: human mature BMP9 (human) (UniProt Q9UK05); experiment: competition ELISA: antibody mixed with 15 nM BMP9-biotin, binding to coated ActRIIB (5 µg/ml) detected
[4] = target: human mature BMP9 (human) (UniProt Q9UK05); experiment: competition ELISA: antibody mixed with 0.6 nM BMP9-biotin, binding to coated BMPRII (1 µg/ml) detected
[5] = target: human mature BMP9 (human) (UniProt Q9UK05); experiment: competition ELISA: antibody mixed with 0.5 nM BMP9-biotin, binding to coated ALK1 (1 µg/ml) detected
[6] = target: human mature BMP9 (human) (UniProt Q9UK05); experiment: competition ELISA: antibody mixed with 0.2 nM BMP9-biotin, binding to coated ALK1 (1 µg/ml) detected

human mature BMP9 (human), sequence (Q9UK05 320-429): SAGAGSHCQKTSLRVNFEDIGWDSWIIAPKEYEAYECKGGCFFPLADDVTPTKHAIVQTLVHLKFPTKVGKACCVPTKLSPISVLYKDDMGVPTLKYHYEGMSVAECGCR

IC50 (read off the curve) [1]: 2 nM
IC50 (read off the curve) [2]: 2 nM
IC50 (read off the curve) [3]: 8 nM
IC50 (read off the curve) [4]: 0.1 nM
B1: BM01 (antibody, from another filing, V domains shown)
VH: QVQLVQSGAEVKKPGASVKVSCKASGYTFTRYWMHWVRQAPGQGLEWMGEINPSQGGTNYNEKFKSRVTMTVDKSISTAYMELSRLRSDDTAVYYCAIGSNYGGLVYWGQGTLVTVSS
VL: EIVLTQSPATLSLSPGERATLSCRASESLDNYGISFMNWFQQKPGQAPRFLIYAASNQGSGIPARFSGSGSGTDFTLTISSLQPEDTAVYFCQQSKEVPRTFGGGTKVEIKR

IC50 (read off the curve) [5]: 0.1 nM
IC50 (read off the curve) [6]: 0.06 nM
B2: BM02 (antibody, from another filing, V domains shown)
VH: QVQLVQSGAEVKKPGASVKVSCKASGYTFRSYNMHWVRQAPGQGLEWMGLIYPGNAVTSYSQKFKDRVTMTVDKSTSTAYMELSSLRSEDTAVYYCAKDDYFRGGSYAMDYWGQGTTVTVSS
VL: EIVLTQSPDFQSVTPKEKVTITCRASQSIRNNLHWYQQKPDQSPKLLIKYASQSIRGVPSRFSGSGSGTDFTLTINSLEAEDAATYYCQQSHSWPYTFGGGTKVEIKR
